Test [1] addresses T1, human B7-H4 (human, UniProt Q7Z7D3 29-282).
T1 construct: On stably transfected 293 cells (recombinant) or on MX-1 / SKBR3 tumor cells (endogenous); the cell is named under assay; also called huB7-H4; hB7-H4
T1 sequence: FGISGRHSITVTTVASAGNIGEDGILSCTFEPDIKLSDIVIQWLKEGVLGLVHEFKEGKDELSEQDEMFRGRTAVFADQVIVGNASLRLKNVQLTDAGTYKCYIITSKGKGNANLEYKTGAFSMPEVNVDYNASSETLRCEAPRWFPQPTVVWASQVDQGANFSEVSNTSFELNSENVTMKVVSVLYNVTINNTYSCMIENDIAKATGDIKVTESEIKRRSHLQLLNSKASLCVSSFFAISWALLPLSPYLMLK
Kind of test: FACS titration on MX-1 tumor cells, endogenous human B7-H4 (panel 'MX-1 tumor cell line', lower block), geometric mean fluorescence. How it is done: (§1) The fluorescent signal was acquired with a BD FACS Calibur and EC₅₀ values were determined with the Graph Pad program Prism 4.

Test [2] has as its target T2, mouse B7-H4 (mouse, UniProt Q7TSP5 29-283).
T2 construct: On stably transfected 293 cells; also called muB7-H4; recombinant mouse B7-H4
T2 sequence: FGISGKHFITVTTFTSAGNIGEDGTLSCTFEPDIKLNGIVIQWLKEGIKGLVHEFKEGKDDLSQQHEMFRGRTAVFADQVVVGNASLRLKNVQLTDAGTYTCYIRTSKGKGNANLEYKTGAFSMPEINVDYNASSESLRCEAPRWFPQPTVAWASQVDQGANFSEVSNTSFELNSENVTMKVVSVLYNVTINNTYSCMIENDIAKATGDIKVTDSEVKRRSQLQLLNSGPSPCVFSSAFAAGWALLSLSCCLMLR
Kind of test: Scatchard analysis, 125I-antibody radioligand cell binding on stably transfected 293 cells. As for the experimental part:
(§2) Competition assay mixtures of 50 μL volume containing a fixed concentration of [I¹²⁵] labeled antibody and decreasing concentrations of serially diluted, unlabeled antibody were placed into 96-well plates. […] Cells were detached from the flask using Sigma Cell Dissociation Solution and were washed with binding buffer, which consisted of Dulbecco's Modified Eagle Medium (DMEM) with 1% bovine serum albumin (BSA), […] and 0.1% sodium azide. The washed cells were added to the 96 well plates at a density of 100,000 cells in 0.2 mL of binding buffer. The final concentration of the [I¹²⁵] labeled antibody in each well was ˜250 pM. The final concentration of the unlabeled antibody in the competition assay ranged from 1000 nM through ten 2-fold dilution steps to a 0 nM buffer-only assay. Competition assays were carried out in triplicate. Competition assays were incubated for 2 hours at room temperature. After the 2-hour incubation, the competition assays were transferred to a Millipore Multiscreen filter plate (Billerica, Mass.) and washed 4 times with binding buffer to separate the free from bound [I¹²⁵] labeled antibody. The filters were counted on a Wallac Wizard 1470 gamma counter (PerkinElmer Life and Analytical Sciences Inc.; Wellesley, Mass.). The binding data was evaluated using NewLigand software (Genentech), which uses the fitting algorithm of Munson and Robard to determine the binding affinity of the antibody (Munson and Robard 1980).

The target in a further test is T3, rat B7-H4 (rat, UniProt Q501W4 29-282).
T3 construct: On stably transfected 293 cells; also called recombinant rat B7-H4
T3 sequence: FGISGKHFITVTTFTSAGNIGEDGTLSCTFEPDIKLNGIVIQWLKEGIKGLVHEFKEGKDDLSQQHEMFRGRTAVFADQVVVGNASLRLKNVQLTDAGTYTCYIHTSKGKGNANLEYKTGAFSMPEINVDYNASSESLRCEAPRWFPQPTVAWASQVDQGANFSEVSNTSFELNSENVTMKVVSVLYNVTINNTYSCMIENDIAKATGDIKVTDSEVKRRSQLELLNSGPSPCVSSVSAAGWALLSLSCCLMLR
The description is as above. As for the experimental part:
as §2

Test [3] has as its target T4, cynomolgus monkey B7-H4 (cynomolgus monkey, UniProt Q7Z7D3 29-282 (human entry)).
T4 construct: On stably transfected 293 cells; also called cyno B7-H4; recombinant cynomolgus monkey B7-H4
T4 chain: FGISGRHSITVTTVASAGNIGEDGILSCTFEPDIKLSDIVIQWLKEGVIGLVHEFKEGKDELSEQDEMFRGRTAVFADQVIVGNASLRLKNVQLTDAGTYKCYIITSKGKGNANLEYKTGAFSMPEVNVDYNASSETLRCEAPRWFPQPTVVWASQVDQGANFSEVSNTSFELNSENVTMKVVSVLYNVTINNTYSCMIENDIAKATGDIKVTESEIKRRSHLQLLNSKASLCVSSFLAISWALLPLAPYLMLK
The test is described as above. How it is done:
as §2

Test [4] has as its target T1, human B7-H4. Described as above. As for the experimental part:
as §2

Test [5] has as its target T2, mouse B7-H4. As to the kind of experiment: FACS titration on 293 cells expressing recombinant mouse B7-H4 (panel '293-mouse B7-H4', lower block), geometric mean fluorescence. As for the experimental part:
as §1

Test [6] addresses T1, human B7-H4. As to the kind of experiment: FACS titration on 293 cells expressing recombinant human B7-H4 (panel '293-human B7-H4', lower block), Dylight-650 goat anti-human IgG, geometric mean fluorescence. How it is done:
as §1

Test [7] concerns the target T1, human B7-H4. As to the kind of experiment: Scatchard analysis, 125I-antibody radioligand cell binding on MX-1 tumor cells. As for the experimental part:
as §2

In test [8] the target is T4, cynomolgus monkey B7-H4. As to the kind of experiment: FACS titration on 293 cells expressing recombinant cynomolgus B7-H4 (panel '293-cyno B7-H4', lower block), geometric mean fluorescence. How it is done:
as §1

Test [9] deals with T5, human B7-H4 S114A glycosylation mutant (human, UniProt Q7Z7D3 29-282).
T5 construct: Full-length human B7-H4 membrane construct with S114 changed to alanine to prevent N-linked glycosylation at N112-S114; transiently expressed on 293 cells; also called mutated S114A human B7-H4; recombinant human B7-H4 S114A
T5 sequence: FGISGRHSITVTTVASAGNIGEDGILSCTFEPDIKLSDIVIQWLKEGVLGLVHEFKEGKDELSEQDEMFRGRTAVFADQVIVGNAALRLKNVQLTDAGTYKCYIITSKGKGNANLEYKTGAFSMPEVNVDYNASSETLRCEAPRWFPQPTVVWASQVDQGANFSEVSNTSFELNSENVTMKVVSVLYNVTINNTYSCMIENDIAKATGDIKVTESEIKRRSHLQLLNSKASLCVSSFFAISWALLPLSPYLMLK
As to the kind of experiment: FACS on 293 cells transfected with S114A human B7-H4 (glycosylation independence).

Test [10] has as its target T1, human B7-H4. Kind of test: cell-based or functional assay.

This is an account of results in US20160159910A1 (Genentech, published 2016).

B1: chimeric antibody ch1D11 (antibody, human IgG1, V domains shown)
VH: QVQLQQSGAELVRPGTSVKMSCKASGYTFTSYWIGWAKQRPGHGFEWIGDIYPGGGYTNYNEKFKGKATLTADKSSSTAYMQFSSLTSEDSAIYYCARLDGSSYRGAMDSWGQGTSITVSS
VL: DIQMTQSPSSLSASLGGKVTITCKASQGFNKYVAWYQHKPGQCPRLLIHYTSTLQPGIPARFSGSGSGRDYSFSISNLEPEDSATYFCLQYGNLLYAFGGGTKLEIKR
notes: also called parental 1D11 antibody; antibody 1D11
Turning to B1, the concentration for a half-maximal effect (EC50) (in general, the concentration needed to bring the measured effect to its halfway point) was 0.67 µg/mL with human B7-H4 [1], 0.38 µg/mL with mouse B7-H4 [5], 0.96 µg/mL in the test with human B7-H4 [6] and 0.66 µg/mL with cynomolgus monkey B7-H4 [8]. Besides, the Kd (commonly the concentration at which binding is half-saturated) in the test with mouse B7-H4 [2] is 9.4 nM; with rat B7-H4 it was 4.1 nM; in the test with cynomolgus monkey B7-H4 [3], 4.1 nM; with human B7-H4 [4], 6.1 nM; in the test with human B7-H4 [7] it was 7.8 nM.

B2: ch1D11, slightly modified version with light chain C43G (antibody, V domains shown)
VH: QVQLQQSGAELVRPGTSVKMSCKASGYTFTSYWIGWAKQRPGHGFEWIGDIYPGGGYTNYNEKFKGKATLTADKSSSTAYMQFSSLTSEDSAIYYCARLDGSSYRGAMDSWGQGTSITVSS
VL: DIQMTQSPSSLSASLGGKVTITCKASQGFNKYVAWYQHKPGQGPRLLIHYTSTLQPGIPARFSGSGSGRDYSFSISNLEPEDSATYFCLQYGNLLYAFGGGTKLEIKR
notes: Human IgG1 / human kappa chimeric antibody; Dylight-488 or -650 labeled in the assay; also called ch1D11 (C43G)
In the case of B2, in test [9], the “fold binding over the isotype control” value was 100 fold.

B3: hu22C10v2.7-vc-MMAE (antibody)
heavy: not shown
light: DIQMTQSPSSLSASVGDRVTITCSATSSISYMHWYQQKPGKAPKGWIYDTSKLAHGVPSRFSGSGSGTDFTLTISSLQPEDFATYYCHQRRSYPFTFGQGTKVEIKRTVAAPSVFIFPPSDEQLKSGTASVVCLLNNFYPREAKVQWKVDNALQSGNSQESVTEQDSKDSTYSLSSTLTLSKADYEKHKVYACEVTHQGLSSPVTKSFNRGEC
modifications: MC-vc-PAB-MMAE conjugated to reduced cysteine residues of the antibody (sites not given); DAR ~3
For B3, in the test with human B7-H4 [10], the “EC50 of in vitro killing (CellTiter-Glo cell viability, 4 days) of 293 cells over-expressing recombinant human B7-H4” value was 0.0339 µg/mL.

B4: hu22C10v2.7 IgG1 A118C-vc-MMAE (antibody)
heavy: not shown
light: DIQMTQSPSSLSASVGDRVTITCSATSSISYMHWYQQKPGKAPKGWIYDTSKLAHGVPSRFSGSGSGTDFTLTISSLQPEDFATYYCHQRRSYPFTFGQGTKVEIKRTVAAPSVFIFPPSDEQLKSGTASVVCLLNNFYPREAKVQWKVDNALQSGNSQESVTEQDSKDSTYSLSSTLTLSKADYEKHKVYACEVTHQGLSSPVTKSFNRGEC
modifications: MC-vc-PAB-MMAE on the engineered cysteine A118C (EU numbering); DAR ~2
Regarding B4, the “EC50 of in vitro killing (CellTiter-Glo cell viability, 4 days) of 293 cells over-expressing recombinant human B7-H4” value in the test with human B7-H4 [10] is 0.0405 µg/mL.

B5: humanized 1D11.v1.9 (antibody, V domains shown)
VH: EVQLVQSGAEVKKPGASVKVSCKASGYTFTSYWIGWVRQAPGQGLEWIGDIYPGGGYTNYNEKFKGRVTITRDTSTSTAYLELSSLRSEDTAVYYCARLDGSSYRGAMDSWGQGTLVTVSS
VL: DIQMTQSPSSLSASVGDRVTITCKASQGFNKYVAWYQQKPGKAPKLLIYYTSTLQPGVPSRFSGSGSGRDYTLTISSLQPEDFATYYCLQYGNLLYAFGQGTKVEIKR
notes: also called hu1D11.v1.9; h1D11.v1.9
For the molecule B5, the EC50 with mouse B7-H4 [5] came to 0.36 µg/mL.

B6: chimeric antibody ch9B9 (antibody, human IgG1, V domains shown)
VH: QVQLQQSGAELMKPGASVKMSCKATGYTFSSYWIEWVKQRPGHGLEWIGEILPGTSITTYNAKFKVKATFTADTSSNTAYMQLSSLTSEDSAVYFCARYYFGSSSFYFDYWGQGTSLTVSS
VL: QAVVTQESALTTSPGDTVTLTCRSSTGAVTTSNYANWVQEKPDHLFTGLIGGTNNRVPGVPARFSGSLIGDKAALTITGAQTEDEAMYFCALWYNNHWVFGGGTKLE
notes: also called antibody 9B9
Consider B6, for which the Kd is 13.7 nM in the test with mouse B7-H4 [2], 4.7 nM with rat B7-H4, 5.2 nM with cynomolgus monkey B7-H4 [3] and 6.6 nM in the test with human B7-H4 [4]. In addition, the “fold binding over the isotype control” value in [9] was 100 fold.

B7: hu1D11v1.9-varD-vc-MMAE (antibody)
heavy: not shown
light: DIQMTQSPSSLSASVGDRVTITCKASQGFNKYVAWYQQKPGKAPKLLIYYTSTLQPGVPSRFSGSGSGRDYTLTISSLQPEDFATYYCLQYGDLLYAFGQGTKVEIKRTVAAPSVFIFPPSDEQLKSGTASVVCLLNNFYPREAKVQWKVDNALQSGNSQESVTEQDSKDSTYSLSSTLTLSKADYEKHKVYACEVTHQGLSSPVTKSFNRGEC
modifications: MC-vc-PAB-MMAE conjugated to reduced cysteine residues of the antibody (sites not given); DAR ~3
B7: the “EC50 of in vitro killing (CellTiter-Glo cell viability, 4 days) of 293 cells over-expressing recombinant human B7-H4” value in the test with human B7-H4 [10] turned out to be 0.0554 µg/mL.

B8: hu1D11v1.9-varD IgG1 A118C-vc-MMAE (antibody)
heavy: not shown
light: DIQMTQSPSSLSASVGDRVTITCKASQGFNKYVAWYQQKPGKAPKLLIYYTSTLQPGVPSRFSGSGSGRDYTLTISSLQPEDFATYYCLQYGDLLYAFGQGTKVEIKRTVAAPSVFIFPPSDEQLKSGTASVVCLLNNFYPREAKVQWKVDNALQSGNSQESVTEQDSKDSTYSLSSTLTLSKADYEKHKVYACEVTHQGLSSPVTKSFNRGEC
modifications: MC-vc-PAB-MMAE on the engineered cysteine A118C (EU numbering); DAR ~2
Turning to B8, the “EC50 of in vitro killing (CellTiter-Glo cell viability, 4 days) of 293 cells over-expressing recombinant human B7-H4” value with human B7-H4 [10] worked out at 0.0819 µg/mL.
